The results in this text go back to US20250052758A1 (PIERRE FABRE MEDICAMENT, published 2025).

The target of the test is T1, P-selectin glycoprotein ligand 1 (PSGL-1) expressed by cells (naive human T cells, HL-60 cells, PBMCs) (human, UniProt Q14242 42-412).
T1 construct: also called SELPLG; CD162
T1 sequence: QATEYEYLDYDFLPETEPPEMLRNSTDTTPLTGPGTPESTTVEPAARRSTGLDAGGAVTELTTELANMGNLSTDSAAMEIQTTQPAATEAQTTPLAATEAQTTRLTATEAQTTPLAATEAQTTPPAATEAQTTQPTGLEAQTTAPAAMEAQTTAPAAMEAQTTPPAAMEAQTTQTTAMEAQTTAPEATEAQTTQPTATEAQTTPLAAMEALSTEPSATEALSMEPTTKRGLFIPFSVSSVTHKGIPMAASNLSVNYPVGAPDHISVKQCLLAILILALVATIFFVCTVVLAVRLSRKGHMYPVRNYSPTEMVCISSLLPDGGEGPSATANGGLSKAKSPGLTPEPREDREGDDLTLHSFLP
Nature of the test: CAPTIREC/TRICEPS ligand-receptor capture on naive human T cells, LC-MS/MS; enrichment against the anti-CD28 antibody control. As to the method: An overview of the […]™ procedure is outlined in FIG. 1. Briefly, the VISTA-Fc fusion protein and the anti-CD28 antibody were separately coupled with TRICEPS™ Naïve human T cells were isolated from commercially available primary human T cells. The surface glycoproteins of the naïve T cells were selectively oxidized. Ligand binding and receptor coupling to the cell surface of the oxidized naïve T cells was performed. The reacted T cells were then lysed and the resulting lysate was affinity purified for the ligand-receptor protein complexes. The purified proteins where then cleaved by trypsin digestion, thereby releasing receptor peptides. The resulting receptor peptides were analyzed by liquid chromatography-tandem mass spectrometry (LC-MS/MS). […]
The resulting receptor peptides were analyzed by LC-MS/MS on a Thermo LTQ Orbitrap XL spectrometer fitted with an electrospray ion source. The samples were measured in data dependent acquisition mode in a 120 min gradient using a 10 cm C18 packed column. Six individual samples in the […]™ dataset were analyzed with a statistical ANOVA model. […]
Peptide identifications were filtered to an FDR of <=1% and quantified using an MS1-based label-free approach. For the MS1 quantification, the nonlinear DYNAMICS Progenesis QI for proteomics software was used, set to consider all unique peptides. […]

B1: VISTA-Fc fusion protein (Fc fusion)
chain: FKVATPYSLYVCPEGQNVTLTCRLLGPVDKGHDVTFYKTWYRSSRGEVQTCSERRPIRNLTFQDLHLHHGGHQAANTSHDLAQRHGLESASDHHGNFSITMRNLTLLDSGLYCCLVVEIRHHHSEHRVHGAMELQVQTGKDAPSNCVVYPSSSQDSENIRSVECPPCPAPPVAGPSVFLFPPKPKDTLMISRTPEVTCVVVDVSHEDPEVKFNWYVDGVEVHNAKTKPREEQYNSTYRVVSVLTVLHQDWLNGKEYKCKVSNKGLPSSIEKTISKAKGQPREPQVYTLPPSREEMTKNQVSLTCLVKGFYPSDIAVEWESNGQPENNYKTTPPVLDSDGSFFLYSKLTVDKSRWQQGNVFSCSVMHEALHNHYTQKSLSLSPGK
Turning to B1, the “Log2 FC” value worked out at 2.33 log2 fold change.
